Measurements: the DeepSol protein solubility set

Assay: soluble on expression in E. coli; label from the status in PepcDB or PDB records

**Q.** Which “soluble on expression in E. coli” value does the source give for “MSIQKLLSKARKAIQDFDMIQENDKIAVGLSGGKDSLTLLHILKSYQRFSPQNFELIAITLNTGGVDNSPLDKLCKEINVPFYEFQTDIKEIVFDIRQEKNPCALCANLRRGALNDNAKKLGCNKVALGHHKDDAIETFLMSMFYEGRVNCFSPKTYLDRQDLTVIRPMVYIEEYMTKKISKDSNYPIITNPCPANGHTRREYIKNLIANLNKEMPDFKRNVFGALNNSEKLFIWDKEKIKNFK” here?
**A.** Its value is “not soluble”.

**Q.** With “MKKTDTLPATLSALIQEYSIAEGIQMAEQQVRENPAKALCRHSLFQLLCVAGDWSRALHQLQLCARMEANYTQEARLYRELVRCEMFRHTVFQGEQRPGFLLPQPVWVESLLAALACHDDTGEVDKHRNTALEAITDTGGQWNGGAFDWASDSDSRLGPVLELVTGGVYIWLPFSQIRSLESPQPTRLTDLLWKPVNITLVNGDTHGAWLFTRYSGSESASDALRLCRETAWQDGPGETTVRALGQKVWLTSHGDISLLDMAHCTFHAQENDGA” as the sequence, how does the “soluble on expression in E. coli” value read?
**A.** The value was “not soluble”.

**Q.** With “MGSDKIHHHHHHMGSQLFVRNGRKMQLTESGKKLYIATHKAFDTLLKGFNSIQTEDVAGTLTITSTQAFTSLWLMPRLYKFSIKHPEIKVKVVSSNGLEDLRRGHIDLAIRFITNKEVDTSDDMTYEFIAEDHVYPACSPQLMKEYNFKEPQDVLKCWLVSLENQGSIDWRTWFKEAGVENYQCHKKWTEVSSGDMALSAVLSGHGFTLASQALFSQYVITGQLVIPFNIKHPISFKRYFVFDPNSAKKERVNVFTTWLKEETLQDEKSTLEAISYGSL” as the sequence, how does the “soluble on expression in E. coli” value read?
**A.** The value was “not soluble”.

**Q.** With “SSKALLALKSQVEKRKAELQTQNRTKKWKRIGDQWKEEDKIQEQETFLEAHSPIESKQENGTETSNKEPPLLKEEVIERLRAWEQPATLFGETDYERYIRLRDLELRNSEESKGQRNIFQQKLRQFKEKDELENFYRVTEMELPSKGSAAQKVKEEIYAAEEGPEFFKTPEEYCFRYMRRLLKMWKAEVEQLDEETKRTSLGRKTLATFEQTKEYLKPLFRKLKKQQLDKSILTSLEKILRYVEQREYVLANDEYLRLAIGNAPWPVGATMVGIHARTAREKISEGKIAHVMNDEETRKYIQAVKRLITLSQKWYPTVPSKMVVG” as the sequence, how does the “soluble on expression in E. coli” value read?
**A.** The value was “soluble”.

**Q.** For “MSTEPQFENPFIDRQLDGSKIHEISGHRFKATALVQPTCCAICSKLIYGLGKQGYRCLGCETVVHKRCHSLINDRCNFGPSSPRQPPPQELSSDSGELRHRIPSPTEPQVSTNHHFNKHFYTRPTFCDHCGSLLYGLSKQGVQCSDCLANVHHRCKEKAVHNCIVSSQ”, which “soluble on expression in E. coli” value is on record?
**A.** The value was “not soluble”.

**Q.** With “GPGSMWFNHRIRQRGLTPVLVNTLQKRLTCSLTRICLCDCKDASGREGVSSSTSGSVPSRMTSQNPPPRPPPTTPAATPGGVQYNTRRESEAVAIEQRRQQQQRATDAQRRGEEPLPEQSESEMARWWPEENQNWSGRMFASPLDKNKKKFDGMFVPEMKEVHGPDKPLELSYAGDNFFLNPDFHMADEVFDETRRFVPPPSFDPAVDEIDDEGFVDGQVMFDIQKAVDEDRRRLEAFGNPLLVEDQVDYLLQPQREGQENIQQRQEFNGFVHWGLLHGAHMIIEENQDYKKAHEFVNRYMRDIDLFQKWLEHPKVRAHIQKKFGVDMHAKFDKLMALVMAMYARSKIQVYEDDPAGALKSLTACMSFINEGADLKKERHRKAIGAVLAARGMVYCKLKSYDRAEDDLTRALRFVNQKRCATLFQLRAEAREALGRIEEARLDEERAAEIWENAEVIAPGMSGKPYKFVL” as the sequence, how does the “soluble on expression in E. coli” value read?
**A.** Its value is “not soluble”.

**Q.** For “MKTTPIPLRRDIILDGKWCAAMLKELESLYEGDIVINGQPEHPEDYEWFYTADGDEIGIAKHRLTEQERRLLALFFTPAERRREPESEEERAWKRWMATGDPAALARLAAPYCRFIHFTASRPIANKEEFADAVRGLFSSPVAIVWEQDRRGLIVEAKQKRTTEPPSLADMAEALAADFYTALHLLIGPIRSVDERLYESFLLEKECFSAARRFWPKRTVYEWEDVIPLPLFEEGAVSEKARRTLSFLDGFDEEEVRAMETFLQCNLNVSMAAKKLYMHRNSLQYRIDKWAEQTGVDIKRFKGAAAVYLAILHRRRS”, which “soluble on expression in E. coli” value is on record?
**A.** Its value is “not soluble”.

**Q.** Which “soluble on expression in E. coli” value does the source give for “MRGSHHHHHHGMASMTGGQQMGRDLYDDDDKDPMSVIKPDMKIKLRMEGAVNGHPFAIEGVGLGKPFEGKQSMDLKVKEGGPLPFAYDILTTVFCYGNRVFAKYPENIVDYFKQSFPEGYSWERSMNYEDGGICIATNDITLDGDCFIYEIRFDGVNFPANGPVMQKRTVKWEPSTEKLYVRDGVLKGDVNMALLLEGGGHYRCDFKTTYKAKKVVQLPDYHFVDHRIEIKSHDKDYNNVNLHEHAEAHSGLPRQAK” here?
**A.** Its value is “soluble”.

**Q.** For “TSQIRQNYSTEVEAAVNRLVNLHLRASYTYLSLGFFFDRDDVALEGVGHFFRELAEEKREGAERLLEFQNDRGGRALFQDVQKPSQDEWGKTQEAMEAALAMEKNLNQALLDLHALGSARADPHLCDFLESHYLDKEVKLIKKMGNHLTNLRRVAGPQPAQTGAPQGSLGEYLFERLTLKHD”, which “soluble on expression in E. coli” value is on record?
**A.** The value was “soluble”.

**Q.** With “MGSDKIHHHHHHNSDVPENTHLVSKEVQAAFNAKYPQAKDVEWELKGDYAVADFYWDGGEHSAWFNPLSAAWYMTETDVRYENLPEPVLAAHKAGKYADWRVDDVDKLTREGMETLYVIEVEKGESELDLFYSSTGILVKTVVDTGHEEDYDDYLPQPDANGIIAIVKQKYPNATIVEIEREKGLQEVTILDENKEKEVYFNERNEWMGTSWDVQVANLPEAVKKSVMEKYSDYVIDDADYVVTPDNEWYILDLENKQIDKELKVKVDKDGVWL” as the sequence, how does the “soluble on expression in E. coli” value read?
**A.** The value was “not soluble”.

**Q.** With “NRYAKLCMEREINKRTVLMQEMELENYKKINQANDKYMELLHNSNHYMRTVYGLLEQDNKDEAINIMDSVLTEYEEGELIEYSTNSILNTILSEYYDKSKTNHIEFNIFVEPGFNIECVESMDLVAMVSNLISNAYEAALKSDEKKIKVQMYMQNDGSFIIIKIENSFSGEIVSQGDRLLTTKKDGNIHGVGIESVEKVAEKYDGWVSTSWGNKSFRTMLVLNNSYVV” as the sequence, how does the “soluble on expression in E. coli” value read?
**A.** Its value is “not soluble”.

**Q.** Which “soluble on expression in E. coli” value does the source give for “MSAKRCASYYNATIKQESDYPELEGDIHVDVTIIGGGFTGVATAVELSEKGYKVALLEANKIAWGATGRNGGQVTGSLSGDAAMTKQLRRHLGQDAEDYVWNLRWRGHDIIKNRVAKYGIDCDLKFGHIQTAYHPGHMQELQQMFDEANRRGMGEFMTLVPAQEMSAYLASPLYHGGLVNRRNMHLHSVNLCLGEARAAASLGAQIFEHSQVLDIQQAELATVVTPKGTVKANSVLIAGNAYHKLGRPKLRGMLFPASLGNCATAKLPEELAKQLNPQNLAVYDCRFVLDYYRLTADNRLMFGGGTNYSGRDPKNVAAELRPAIERTFPQLKGVDIEFAWAGMAGIVINRIPQLGKISPNIFYCQGYSGHGVATSHIMAEIMGQAIDGQMQEFDLFAAMRHIRIPLNEWFGNQALALGMLYYTLRENWRLEHHHHHH” here?
**A.** Its value is “not soluble”.

**Q.** Which “soluble on expression in E. coli” value does the source give for “RPSINFYESLIDSSSLDGKLLSPRRSSGWVRVDTNMWGNPFFGFRSDLVSGQFRPDYPFRFSSNLYLSKEVKEIVLNTIASTPRNGVGRYKYSDLGFILLQQIVEKVSGKSLNVFVEERIFRPIGAGSLGYLPLDKYSVSRIAPAQNDKFLRKSIVRGTVDDE” here?
**A.** Its value is “not soluble”.

**Q.** For “MRTLFIGDLHLSADRLDITQAFNRFLDTELDDADALYILGDLFEVWVGDDLAAPFALELAHKLKQVSQTLPIFFIHGNRDFMLGKRFAEAAGMQLLPEVTCIELYGVKTVILHGDSLCTLDKAYQRFRKLRSFACARWLYSCLPKKRRQAIANKIRSNSQSSNQQKSYVIMDVEPSAVNALFVKTHTTRMIHGHTHRPAIHIVDNACQRIVVGDWYEQGSVLSVSANGVDLKSLPFETTLEHHHHHH”, which “soluble on expression in E. coli” value is on record?
**A.** The value was “not soluble”.

**Q.** For “MSVVISGALTDGAGIPMSGYHIILKSRVNTPEVVMNTVADVMTGNDGEYCFHARTGKYGVYLKQDWRNEYNVGDIAVYEDSKPGTLNDFLIAPDEGDLKPDVVKRFEEMVAQAQQSAGAAAGNAQQTAQDVAAAAGYARAAEQAKNDIDAALTGTLKTANHLSETAAAGEKAQQKSRDNLGLKSAATMEAQSDIYDRTKGRLAIPGAFGFGCAFLPEDVIRFDTKSDFLAWVRNALPGEYSVAGPYGIIIPDTRFEGVLSIRWTDARPETTEPRYRAKSLTFYGINGPIYHTRYRYWPISRLTDWVKINITTEDIIYRIVASSVRNRWGDPDIGGLIIAAYQGEADGDKVIRLVRGQSYRGSRLGPVGISVPSTPTGTYIASPQFFITGCSEHSLPGSYCALSGVPDAHVSGAMPGLFIRTS”, which “soluble on expression in E. coli” value is on record?
**A.** Its value is “not soluble”.

**Q.** With “MTRTNYQKKRMTCPVETEDITYRRKKIKGRRQAILAQFEPELVHHELIGDSCTCPDCHGTLTEIGSVVQRQELVFIPAQLKRINHVQHAYKCQTCSDNSLSDKIIKAPVPKAPLAHSLGSASIIAHTVHQKFTLKVPNYRQEEDWNKLGLSISRKEIANWHIKSSQYYFEPLYDLLRDILLSQEVIHADETSYRVLESDTQLTYYWTFLSGKHEKKGITLYHHDKRRSGLVTQEVLGDYSGYVHCDMHGAYRQLEHAKLVGCWAHVRRKFFEATPKQADKTSLGRKGLVYCDKLFALEAEWCELPPQERLVKRKEILTPLMTTFFDWCREQVVLSGSKLGLAIAYSLKHERTFRTVLEDGHIVLSNNMAERAIKSLVMGRKNWLFSQSFEGAKAAAIIMSLLETAKRHGLNSEKYISYLLDRLPNEETLAKREVLEAYLPWAKKVQTNCQ” as the sequence, how does the “soluble on expression in E. coli” value read?
**A.** Its value is “not soluble”.

**Q.** With “MSLGLIRAQPKSGYYVSNHAIKQLASKTTPVPEQASTVVSISDMVFSILSSIKDPETVPLGSAFPWPDLFPLARLSRSLAHATRDMGPAAIVESLPPGNHDLRRQIARRYLMQGVEADVDNILITNGAFEALNLCLEAVTQPGDLVAIESPTFHGCLQALERLQLKAVEIPVDPVLGMDLDYLESVLEKCPVRACWSMTSFQNPMGVSMPAERKQVLVELLTRYRIPLIEDDVYGELYFGMQEHRPAKAYDSEGYVMHCSSFSKTLAPGYRIGWALLPKRFERKVERLKVITSLSTSTIAQAAIADFLQHGGYDRHLRRLRTKFELQQHQYLHLIARYFPAETQVTRPHGGYFLWVDLPERVDALVLFQRALEQGVSVAPGPIFSARHQCCNCIRINYSKPVDAEVEQAFKTLGRLMSSIEAEGHHHHHH” as the sequence, how does the “soluble on expression in E. coli” value read?
**A.** Its value is “soluble”.

**Q.** Which “soluble on expression in E. coli” value does the source give for “MPKRRYNPSANEEEKIPIVEKLYRENQESDFLGGGFCDDDDEVQERREQISEMRQKREEAAHNLIQAPENCEKCDKGLMDSWLWERYNCAVCDACRDDKGEHKLLARTEVKNTYLLKDCDLDLRKPKLRYWAKKNPHNPRYGDMKLYLKCQIETRVLEVHGSWEDLELKKELREQSKEVRSEKRFEKKLKDLRQQIRGTSGVKVDFGRPHTHEFGKETHVEEDTWRRTCITCEYEEVFEKL” here?
**A.** Its value is “not soluble”.

**Q.** For “MGSDKIHHHHHHMKMKGIESLKEIFKYGAFSLPVANYLLCEGNIPGDCKRILDVLKLAWKGNFKEAIRRADKAVENSRSETAKYFLLANKLAFLKYTGKTDVNLYRYLKRNLPKMSKSIRDTVIVTLINFEASGIKPLRKVRVWKNDYRKSTLSFLYLSLARREADSGRLSEAVHDYIQAYRLSREVPHPTCIVSSLNDLAWDIREKHPKLAHALSQGAVFWLGYYREEPGNLFGALDTLFVVEKDMDSPSIHSTAHIIVSLPVPEDYLSLLKKAKKFVLDYTGSTYPNTSQLRRYVEKVAWKGKTLSSKGISDILKGKTKMIRADTIRKLLTSGVDTGAPFPVWNEWIKMEIERKYRESSEKLKELPFHQRQILFLTTYMALLDREFLSRKEKLKKAYTLLEDIESFADFMAKDHRTMEFVVSMVKAHPFVEGRKEAVKRALARMKRKRLERFVLRYIEMKESDRKLLDRFLRNYGRYDGVRFGIRLKGPEVVREFAKKYSLKVQPLFAAFWCEEDGRVRRRLERVLKHMVLYNLIEIAILFVMVEK”, which “soluble on expression in E. coli” value is on record?
**A.** Its value is “not soluble”.
